Experimental findings from the supplement of paper PMC7877785 are described below.

± gives the uncertainty stated by the source.

This data set is described as follows: self-splicing fitness, log relative to wild type (ln ratio); higher = more splicing; Tetrahymena group I intron in knt gene, E. coli kanamycin selection, DiMSum; sequences stand for … in CUCUCU…GGAGGGAAAAGUUAUCAGGCAUGCACCUGGUAGCUAGUCUUUAAACCAAUAGAUUGCAUCGGUUUAAAAGGCAAGACCGUCAAAUUGCGGGAAAGGGGUCAACAGCCGUUCAGUACCAAGUCUCAGGGGAAACUUUGAGAUGGCCUUGCAAAGGGUAUGGUAAUAAGCUGACGGACAUGGUCCUAACCACGCAGCCAAGUCCUAAGUCAACAGAUCUUCUGUUGAUAUGGAUGCAGUUCACAGACUAAAUGUCGGUCGGGGAAGAUGUAUUCUUCUCAUAAGAUAUAGUCGGACCUCUCCUUAAUGGGAGCUAGCGGAUGAAGUGAUGCAACACUGGAGCCGCUGGGAACUAAUUUGUAUGCGAAAGUAUAUUGAUUAGUUUUGGAGUACUCGUGGUCG
Put shortly:
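DiMSum derived fitness as the error-weighted combination of fold changes across replicates, kanamycin versus no kanamycin, normalised to wild type. E. coli BL21(DE3) held the library, which randomised all eight P1ex-region intron nucleotides within the knt kanamycin-resistance gene on pET-22b(+). Six replicate transformations grew overnight at 37°C or 30°C on LB agar with or without 25 μg/mL kanamycin, also containing 100 μg/mL carbenicillin, 50 μM IPTG and 0.2% rhamnose, and pooled colonies were amplicon-sequenced on an Illumina HiSeq 2500.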

As for UUAGAGCAAUAUUACGGAUA, the “self-splicing fitness (ln)” value (30 °C) is -2.47 ± 0.31.

On to UCCGAGCAAUAUUACGCUUU, for which the “self-splicing fitness (ln)” value runs as follows: (30 °C) -2.64 ± 0.26; (37 °C) -3.01 ± 0.47.

Consider CCCCAGCAAUAUUACGCUGA, for which the “self-splicing fitness (ln)” value is -3.97 ± 0.2 (30 °C) and -2.42 ± 0.17 (37 °C).

As for GACAAGCAAUAUUACGUAUC, the “self-splicing fitness (ln)” value reads like this: (30 °C) -3.31 ± 0.15; (37 °C) -0.876 ± 0.14.

Turning to GCAAAGCAAUAUUACGGCCU, the “self-splicing fitness (ln)” value reads like this: (30 °C) -0.867 ± 0.12; (37 °C) -0.967 ± 0.16.

As to CGACAGCAAUAUUACGAGUU, the “self-splicing fitness (ln)” value was -2.98 ± 0.1 (30 °C) and -3.25 ± 0.15 (37 °C).

On to UCAUAGCAAUAUUACGAAAG, for which the “self-splicing fitness (ln)” value (37 °C) is -1.84 ± 0.47.

Turning to UGGCAGCAAUAUUACGACCU, the “self-splicing fitness (ln)” value reads like this: (30 °C) 0.0278 ± 0.12; (37 °C) 0.0625 ± 0.12.

Regarding UGCUAGCAAUAUUACGGUGA, the “self-splicing fitness (ln)” value reads like this: (30 °C) -1.42 ± 0.12; (37 °C) -0.513 ± 0.13.

As for ACUCAGCAAUAUUACGUCUC, the “self-splicing fitness (ln)” value was -1.8 ± 0.072 (30 °C) and -0.51 ± 0.083 (37 °C).

UGAAAGCAAUAUUACGCCCC: the “self-splicing fitness (ln)” value (30 °C) is -1.35 ± 0.43 and the “self-splicing fitness (ln)” value (37 °C) worked out at 0.00457 ± 0.49.

Take GUCGAGCAAUAUUACGCAGU: the “self-splicing fitness (ln)” value is -2.71 ± 0.17 (30 °C) and -1.17 ± 0.14 (37 °C).

As for ACUAAGCAAUAUUACGCUAC, the “self-splicing fitness (ln)” value reads like this: (30 °C) -3.94 ± 0.23; (37 °C) -1.08 ± 0.18.

With CCCAAGCAAUAUUACGGAGC, the “self-splicing fitness (ln)” value was -3.64 ± 0.18 (30 °C) and -2.21 ± 0.17 (37 °C).

Regarding UUUGAGCAAUAUUACGAGUA, the “self-splicing fitness (ln)” value (37 °C) was -1.86 ± 0.21.

Take UUGUAGCAAUAUUACGGUAG: the “self-splicing fitness (ln)” value (30 °C) was -0.909 ± 0.18 and the “self-splicing fitness (ln)” value (37 °C) was -0.181 ± 0.2.

GUUCAGCAAUAUUACGAUGU: the “self-splicing fitness (ln)” value reads like this: (30 °C) -0.419 ± 0.075; (37 °C) 0.31 ± 0.11.

Take UCUCAGCAAUAUUACGAACA: the “self-splicing fitness (ln)” value is -1.41 ± 0.12 (30 °C) and -1.01 ± 0.13 (37 °C).

On to AGGUAGCAAUAUUACGACAU, for which, under “30 °C”, the “self-splicing fitness (ln)” value came out at 0 ± 0.009.

For UCUUAGCAAUAUUACGUGCA, the “self-splicing fitness (ln)” value is -1.95 ± 0.12 (30 °C) and -1.07 ± 0.095 (37 °C).

Consider GACUAGCAAUAUUACGCAUG, for which the “self-splicing fitness (ln)” value runs as follows: (30 °C) -1.24 ± 0.063; (37 °C) -0.455 ± 0.075.

With CAAUAGCAAUAUUACGUGUA, the “self-splicing fitness (ln)” value runs as follows: (30 °C) -3.98 ± 0.18; (37 °C) -2.29 ± 0.11.

Regarding UACCAGCAAUAUUACGGGCC, the “self-splicing fitness (ln)” value (30 °C) is -2.22 ± 0.1 and the “self-splicing fitness (ln)” value (37 °C) is -1.2 ± 0.11.

Turning to GGCCAGCAAUAUUACGAUGA, the “self-splicing fitness (ln)” value was -3.07 ± 0.28 (30 °C) and -2.03 ± 0.22 (37 °C).

As to CGCCAGCAAUAUUACGAGGC, the “self-splicing fitness (ln)” value runs as follows: (30 °C) -2.66 ± 0.2; (37 °C) -3.07 ± 0.32.

Regarding AGAAAGCAAUAUUACGAACA, the “self-splicing fitness (ln)” value (30 °C) was -0.534 ± 0.16 and the “self-splicing fitness (ln)” value (37 °C) was -0.288 ± 0.16.

Consider AGACAGCAAUAUUACGAAUU, for which the “self-splicing fitness (ln)” value is, setting by setting: (30 °C) -2.74 ± 0.1; (37 °C) -1.27 ± 0.11.

For the sequence AGUAAGCAAUAUUACGAACC, the “self-splicing fitness (ln)” value was -1.74 ± 0.21 (30 °C) and 1.04 ± 0.23 (37 °C).

On to UAAAAGCAAUAUUACGGUGU, for which the “self-splicing fitness (ln)” value by setting is: (30 °C) -3.4 ± 0.13; (37 °C) -2.83 ± 0.15.

Turning to UUCCAGCAAUAUUACGUAUC, the “self-splicing fitness (ln)” value (30 °C) was -1.29 ± 0.15 and the “self-splicing fitness (ln)” value (37 °C) was -2.83 ± 0.34.

Regarding UCGUAGCAAUAUUACGGAUG, for the setting “37 °C”, the “self-splicing fitness (ln)” value is -1.89 ± 0.47.

For AGUAAGCAAUAUUACGGCGU, the “self-splicing fitness (ln)” value by setting is: (30 °C) -0.683 ± 0.073; (37 °C) 0.246 ± 0.095.

As for GGCCAGCAAUAUUACGUAGC, the “self-splicing fitness (ln)” value by setting is: (30 °C) -2.24 ± 0.16; (37 °C) 0.278 ± 0.16.

Consider UGGCAGCAAUAUUACGCCGU, for which the “self-splicing fitness (ln)” value (30 °C) was -2.63 ± 0.18 and the “self-splicing fitness (ln)” value (37 °C) is -2.02 ± 0.17.

Turning to CGAAAGCAAUAUUACGGGAU, the “self-splicing fitness (ln)” value reads like this: (30 °C) -2.98 ± 0.21; (37 °C) -2.87 ± 0.27.

In the case of ACCUAGCAAUAUUACGCUCC, the “self-splicing fitness (ln)” value is, setting by setting: (30 °C) -1.55 ± 0.14; (37 °C) -0.204 ± 0.12.

With CAUCAGCAAUAUUACGAUUG, the “self-splicing fitness (ln)” value was -1.45 ± 0.054 (30 °C) and -0.782 ± 0.071 (37 °C).

Regarding CCGCAGCAAUAUUACGUUAC, the “self-splicing fitness (ln)” value reads like this: (30 °C) -3.36 ± 0.14; (37 °C) -2.29 ± 0.14.

Take CGUCAGCAAUAUUACGUGUA: the “self-splicing fitness (ln)” value was -3.11 ± 0.099 (30 °C) and -1.66 ± 0.083 (37 °C).

As for CCACAGCAAUAUUACGAGGC, the “self-splicing fitness (ln)” value by setting is: (30 °C) -3.21 ± 0.14; (37 °C) -2.37 ± 0.21.

For the sequence CUAGAGCAAUAUUACGUGCA, the “self-splicing fitness (ln)” value is, setting by setting: (30 °C) -3.88 ± 0.21; (37 °C) -2.18 ± 0.19.

Turning to CUGCAGCAAUAUUACGAUCU, the “self-splicing fitness (ln)” value is, setting by setting: (30 °C) -4.3 ± 0.43; (37 °C) -2.46 ± 0.27.

In the case of AAUAAGCAAUAUUACGUCGG, the “self-splicing fitness (ln)” value by setting is: (30 °C) -1.91 ± 0.14; (37 °C) -1.75 ± 0.18.

With GGAAAGCAAUAUUACGGUCA, the “self-splicing fitness (ln)” value (30 °C) was -0.418 ± 0.09 and the “self-splicing fitness (ln)” value (37 °C) is 0.154 ± 0.1.

As for AAAUAGCAAUAUUACGACAG, the “self-splicing fitness (ln)” value by setting is: (30 °C) -2.02 ± 0.13; (37 °C) -1.34 ± 0.16.

GGUAAGCAAUAUUACGAGAU: the “self-splicing fitness (ln)” value (30 °C) was -2.94 ± 0.25 and the “self-splicing fitness (ln)” value (37 °C) is -1.2 ± 0.16.

On to CUGCAGCAAUAUUACGCGCU, for which the “self-splicing fitness (ln)” value reads like this: (30 °C) -2.68 ± 0.2; (37 °C) -2.27 ± 0.22.

UUCAAGCAAUAUUACGGCGC: the “self-splicing fitness (ln)” value (30 °C) is -1.42 ± 0.14 and the “self-splicing fitness (ln)” value (37 °C) was -1.47 ± 0.2.

Take AACAAGCAAUAUUACGGACC: the “self-splicing fitness (ln)” value reads like this: (30 °C) -1.84 ± 0.1; (37 °C) -0.201 ± 0.11.
